Assay results taken from publication PMC6006248, “CARK1 mediates ABA signaling by phosphorylation of ABA receptors” (Cell Discovery, 2018).

B1: ABI1 (Clade A PP2C) (enzyme)
chain: MEEVSPAIAGPFRPFSETQMDFTGIRLGKGYCNNQYSNQDSENGDLMVSLPETSSCSVSGSHGSESRKVLISRINSPNLNMKESAAADIVVVDISAGDEINGSDITSEKKMISRTESRSLFEFKSVPLYGFTSICGRRPEMEDAVSTIPRFLQSSSGSMLDGRFDPQSAAHFFGVYDGHGGSQVANYCRERMHLALAEEIAKEKPMLCDGDTWLEKWKKALFNSFLRVDSEIESVAPETVGSTSVVAVVFPSHIFVANCGDSRAVLCRGKTALPLSVDHKPDREDEAARIEAAGGKVIQWNGARVFGVLAMSRSIGDRYLKPSIIPDPEVTAVKRVKEDDCLILASDGVWDVMTDEEACEMARKRILLWHKKNAVAGDASLLADERRKEGKDPAAMSAAEYLSKLAIQRGSKDNISVVVVDLKPRRKLKSKPLN

Tests used:
[1] = biological target: T1, CARK1-KD (Arabidopsis thaliana, UniProt Q9LUT0); assay: in vitro kinase assay, […] autoradiography; assay type: biochemical; conditions: labelled compound; autophosphorylation and phosphorylation of RCAR3/RCAR11
T1 construct: kinase domain, residues 50-353, 6xHis fusion (pET28a), E. coli Rosetta (DE3)
T1 sequence (Q9LUT0 50-353): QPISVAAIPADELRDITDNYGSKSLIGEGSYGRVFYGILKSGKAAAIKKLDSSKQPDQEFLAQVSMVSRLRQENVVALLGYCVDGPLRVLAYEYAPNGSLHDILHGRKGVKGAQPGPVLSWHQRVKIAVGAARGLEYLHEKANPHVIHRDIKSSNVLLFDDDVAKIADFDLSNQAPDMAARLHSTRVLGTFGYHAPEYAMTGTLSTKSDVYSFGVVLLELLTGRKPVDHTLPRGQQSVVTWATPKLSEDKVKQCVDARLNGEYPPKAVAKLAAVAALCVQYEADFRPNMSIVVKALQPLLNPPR

[2] = biological target: ABI1 (Clade A PP2C) (Arabidopsis) (UniProt P49597)
[3] = biological target: T2, RCAR11 (PYR1) with ABI1 (Arabidopsis thaliana, UniProt O49686); assay: in vitro Ser/Thr phosphatase assay of ABI1; assay type: biochemical; conditions: read-out is receptor-dependent inhibition of ABI1
T2 construct: recombinant receptor plus ABI1 phosphatase; tags and borders for this assay only in supplement; receptor dimeric; with Protein phosphatase 2C 56
T2 sequence (O49686 1-191): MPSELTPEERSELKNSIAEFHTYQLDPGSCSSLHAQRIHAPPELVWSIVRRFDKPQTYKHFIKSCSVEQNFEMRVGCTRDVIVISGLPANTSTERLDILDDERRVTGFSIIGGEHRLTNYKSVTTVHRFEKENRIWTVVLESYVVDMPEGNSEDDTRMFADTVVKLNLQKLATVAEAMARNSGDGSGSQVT
T2 sequence (P49597 1-434 partner): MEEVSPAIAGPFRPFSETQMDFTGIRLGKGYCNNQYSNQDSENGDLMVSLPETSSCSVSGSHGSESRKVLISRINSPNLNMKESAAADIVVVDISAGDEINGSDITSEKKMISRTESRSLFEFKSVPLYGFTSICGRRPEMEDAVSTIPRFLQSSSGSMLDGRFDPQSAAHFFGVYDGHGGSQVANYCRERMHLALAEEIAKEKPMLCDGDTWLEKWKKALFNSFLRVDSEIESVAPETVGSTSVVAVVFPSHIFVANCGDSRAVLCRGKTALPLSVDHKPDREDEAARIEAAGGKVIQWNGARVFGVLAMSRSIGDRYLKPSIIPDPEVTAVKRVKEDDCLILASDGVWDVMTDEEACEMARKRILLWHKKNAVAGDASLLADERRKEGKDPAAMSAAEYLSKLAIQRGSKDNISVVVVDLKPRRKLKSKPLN

[4] = biological target: T3, RCAR3 (PYL8) with ABI1 (Arabidopsis thaliana, UniProt Q9FGM1); assay: in vitro Ser/Thr phosphatase assay of ABI1; assay type: biochemical; conditions: read-out is receptor-dependent inhibition of ABI1
T3 construct: recombinant receptor plus ABI1 phosphatase; tags and borders for this assay only in supplement; receptor monomeric; with Protein phosphatase 2C 56
T3 sequence (Q9FGM1 1-188): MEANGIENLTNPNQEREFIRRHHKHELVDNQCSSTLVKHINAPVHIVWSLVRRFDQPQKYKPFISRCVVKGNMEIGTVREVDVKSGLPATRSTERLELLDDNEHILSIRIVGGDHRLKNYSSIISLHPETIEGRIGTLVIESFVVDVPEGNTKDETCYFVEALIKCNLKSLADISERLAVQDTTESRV
T3 sequence (P49597 1-434 partner): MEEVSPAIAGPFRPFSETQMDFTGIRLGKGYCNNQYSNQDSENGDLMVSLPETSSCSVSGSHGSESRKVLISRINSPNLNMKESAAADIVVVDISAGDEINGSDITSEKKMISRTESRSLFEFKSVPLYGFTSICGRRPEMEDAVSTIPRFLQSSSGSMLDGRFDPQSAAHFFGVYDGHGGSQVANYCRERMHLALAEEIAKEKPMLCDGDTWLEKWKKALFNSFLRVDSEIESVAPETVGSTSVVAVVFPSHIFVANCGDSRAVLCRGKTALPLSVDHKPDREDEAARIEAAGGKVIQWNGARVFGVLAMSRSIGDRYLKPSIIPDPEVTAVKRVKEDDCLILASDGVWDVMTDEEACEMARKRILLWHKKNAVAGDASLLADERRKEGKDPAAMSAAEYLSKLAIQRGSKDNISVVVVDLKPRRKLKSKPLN

[5] = biological target: T4, RCAR3^T77A (Arabidopsis, UniProt Q9FGM1 1-188, T77A); assay: SPR
T4 sequence: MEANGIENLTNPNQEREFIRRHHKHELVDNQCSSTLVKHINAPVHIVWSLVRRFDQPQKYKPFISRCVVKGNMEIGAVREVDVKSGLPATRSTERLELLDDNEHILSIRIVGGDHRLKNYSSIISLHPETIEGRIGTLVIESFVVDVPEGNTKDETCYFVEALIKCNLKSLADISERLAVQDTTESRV

[6] = biological target: T5, RCAR3^S85R (interface point mutant) (Arabidopsis, UniProt Q9FGM1 1-188, S85R); assay: SPR
T5 sequence: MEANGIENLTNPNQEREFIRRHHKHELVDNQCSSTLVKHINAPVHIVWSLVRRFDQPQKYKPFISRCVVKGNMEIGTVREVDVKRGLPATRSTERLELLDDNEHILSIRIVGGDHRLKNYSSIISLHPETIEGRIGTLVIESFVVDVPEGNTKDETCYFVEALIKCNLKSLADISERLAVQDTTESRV

[7] = biological target: T6, RCAR3^T77D (phosphor-mimic form of RCAR3) (Arabidopsis, UniProt Q9FGM1 1-188, T77D); assay: SPR
T6 sequence: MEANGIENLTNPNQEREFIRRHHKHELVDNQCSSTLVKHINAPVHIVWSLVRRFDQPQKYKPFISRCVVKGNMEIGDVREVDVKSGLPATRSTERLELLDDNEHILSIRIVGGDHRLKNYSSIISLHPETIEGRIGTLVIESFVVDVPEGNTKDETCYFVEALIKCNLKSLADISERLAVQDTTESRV

[8] = biological target: B1; assay: SPR
[9] = biological target: T7, ABI1 (Clade A PP2C) (Arabidopsis, UniProt P49597 1-434); assay: SPR; in vitro; who was immobilised and the conditions are not told in the main text (Supplementary Fig. S7A-E); conditions: both partners purified
T7 construct: Protein phosphatase 2C ABI1, Arabidopsis; source: purified with the similar procedures as described for CARK1-KD
T7 sequence (looked up): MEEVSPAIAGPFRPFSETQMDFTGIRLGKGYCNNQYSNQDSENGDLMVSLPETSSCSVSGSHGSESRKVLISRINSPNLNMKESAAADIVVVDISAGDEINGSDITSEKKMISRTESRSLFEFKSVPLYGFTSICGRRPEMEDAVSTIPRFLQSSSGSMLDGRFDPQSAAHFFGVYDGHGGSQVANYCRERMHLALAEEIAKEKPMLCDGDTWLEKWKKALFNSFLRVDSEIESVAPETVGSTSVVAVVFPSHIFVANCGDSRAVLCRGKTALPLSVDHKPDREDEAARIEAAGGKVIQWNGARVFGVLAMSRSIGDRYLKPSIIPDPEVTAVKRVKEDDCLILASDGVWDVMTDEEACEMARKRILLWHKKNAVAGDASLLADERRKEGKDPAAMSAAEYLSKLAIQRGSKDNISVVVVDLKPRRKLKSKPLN

[10] = biological target: T8, His-tagged CARK1-KD (kinase domain of CARK1, residues 50-353) (Arabidopsis, UniProt Q9LUT0 50-353); assay: pull-down; GST pull-down; His-tagged CARK1-KD or CARK1-KD^N204A (50, 100 and 200 μg) incubated with 100 μg of GST-tagged RCAR3 or RCAR11; SDS-PAGE and immunoblot; conditions: both partners purified
T8 construct: CARK1 (At3g17410), Arabidopsis, kinase domain, residues 50-353; Cloned into pET28a for the pull-down; details of the purification are in the Supplementary Information; source: E. coli Rosetta (DE3), purified
T8 sequence (looked up): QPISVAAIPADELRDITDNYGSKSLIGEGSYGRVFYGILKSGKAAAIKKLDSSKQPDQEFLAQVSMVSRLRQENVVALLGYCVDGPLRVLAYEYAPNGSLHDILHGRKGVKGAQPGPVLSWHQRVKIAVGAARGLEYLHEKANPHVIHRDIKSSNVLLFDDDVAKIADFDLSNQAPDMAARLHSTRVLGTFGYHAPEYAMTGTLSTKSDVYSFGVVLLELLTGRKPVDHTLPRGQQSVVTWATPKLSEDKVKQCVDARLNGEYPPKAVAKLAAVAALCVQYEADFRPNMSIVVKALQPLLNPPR

Nc1ncnc2c1ncn2[C@@H]1O[C@H](COP(=O)(O)OP(=O)(O)OP(=O)(O)O)[C@@H](O)[C@H]1O [ATP]
in vitro kinase assay, 32P autoradiography [1]: wild-type CARK1-KD showed strong autophosphorylation activity

RCAR11^T78D (phosphor-mimic form of RCAR11) (from UniProt O49686 1-191) (receptor)
phosphatase activity of ABI1 in vitro, without ABA: inhibitory effect [2]: 28%

CC1=CC(=O)CC(C)(C)[C@@]1(O)/C=C/C(C)=C\C(=O)O [ABA]
in vitro Ser/Thr phosphatase assay of ABI1 [3]: phosphatase activity of ABI1 was totally abolished by either forms of RCAR3/RCAR11
in vitro Ser/Thr phosphatase assay of ABI1 [4]: phosphatase activity of ABI1 was totally abolished by either forms of RCAR3/RCAR11

B1
koff [5]: 0.0046 s⁻¹
koff [6]: 0.00676 s⁻¹
koff [7]: 0.000867 s⁻¹

B2: wild-type RCAR3 (purified, SPR and phosphatase assay) (receptor, Arabidopsis, UniProt Q9FGM1 1-188, looked up)
chain: MEANGIENLTNPNQEREFIRRHHKHELVDNQCSSTLVKHINAPVHIVWSLVRRFDQPQKYKPFISRCVVKGNMEIGTVREVDVKSGLPATRSTERLELLDDNEHILSIRIVGGDHRLKNYSSIISLHPETIEGRIGTLVIESFVVDVPEGNTKDETCYFVEALIKCNLKSLADISERLAVQDTTESRV
notes: ABA receptor RCAR3 (PYL8), Arabidopsis; a His-tagged RCAR3 is named for the in-gel kinase assay; also called PYL8; source: purified with the similar procedures as described for CARK1-KD
koff [8]: 0.000822 s⁻¹
Kd [9]: 0.88 µM

B3: GST-tagged RCAR11 (receptor, Arabidopsis, UniProt O49686 1-191, looked up)
chain: MPSELTPEERSELKNSIAEFHTYQLDPGSCSSLHAQRIHAPPELVWSIVRRFDKPQTYKHFIKSCSVEQNFEMRVGCTRDVIVISGLPANTSTERLDILDDERRVTGFSIIGGEHRLTNYKSVTTVHRFEKENRIWTVVLESYVVDMPEGNSEDDTRMFADTVVKLNLQKLATVAEAMARNSGDGSGSQVT
notes: ABA receptor RCAR11 (PYR1), Arabidopsis, cDNA cloned into pGEX-6P-1; Details are in the Supplementary Information; also called PYR1; source: E. coli, purified (similar procedures as for CARK1-KD)
binding result [10]: binds

B4: RCAR3^T77A (receptor, Arabidopsis, UniProt Q9FGM1 1-188, looked up)
chain: MEANGIENLTNPNQEREFIRRHHKHELVDNQCSSTLVKHINAPVHIVWSLVRRFDQPQKYKPFISRCVVKGNMEIGAVREVDVKSGLPATRSTERLELLDDNEHILSIRIVGGDHRLKNYSSIISLHPETIEGRIGTLVIESFVVDVPEGNTKDETCYFVEALIKCNLKSLADISERLAVQDTTESRV
notes: ABA receptor RCAR3 (PYL8), Arabidopsis, with T77A; source: purified with the similar procedures as described for CARK1-KD
Kd [9]: ~6.4 µM

B5: GST-tagged RCAR3 (receptor, Arabidopsis, UniProt Q9FGM1 1-188, looked up)
chain: MEANGIENLTNPNQEREFIRRHHKHELVDNQCSSTLVKHINAPVHIVWSLVRRFDQPQKYKPFISRCVVKGNMEIGTVREVDVKSGLPATRSTERLELLDDNEHILSIRIVGGDHRLKNYSSIISLHPETIEGRIGTLVIESFVVDVPEGNTKDETCYFVEALIKCNLKSLADISERLAVQDTTESRV
notes: ABA receptor RCAR3 (PYL8), Arabidopsis, cDNA cloned into pGEX-6P-1; Details are in the Supplementary Information; also called PYL8; source: E. coli, purified (similar procedures as for CARK1-KD)
binding result [10]: binds

B6: RCAR3^T77D (phosphor-mimic form of RCAR3) (receptor, Arabidopsis, UniProt Q9FGM1 1-188, looked up)
chain: MEANGIENLTNPNQEREFIRRHHKHELVDNQCSSTLVKHINAPVHIVWSLVRRFDQPQKYKPFISRCVVKGNMEIGDVREVDVKSGLPATRSTERLELLDDNEHILSIRIVGGDHRLKNYSSIISLHPETIEGRIGTLVIESFVVDVPEGNTKDETCYFVEALIKCNLKSLADISERLAVQDTTESRV
notes: ABA receptor RCAR3 (PYL8), Arabidopsis, with T77D; source: purified with the similar procedures as described for CARK1-KD
Kd [9]: ~0.2 µM

B7: RCAR3^S85R (interface point mutant) (receptor, Arabidopsis, UniProt Q9FGM1 1-188, looked up)
chain: MEANGIENLTNPNQEREFIRRHHKHELVDNQCSSTLVKHINAPVHIVWSLVRRFDQPQKYKPFISRCVVKGNMEIGTVREVDVKRGLPATRSTERLELLDDNEHILSIRIVGGDHRLKNYSSIISLHPETIEGRIGTLVIESFVVDVPEGNTKDETCYFVEALIKCNLKSLADISERLAVQDTTESRV
notes: ABA receptor RCAR3 (PYL8), Arabidopsis, with S85R; source: purified with the similar procedures as described for CARK1-KD
Kd [9]: 11.3 µM
